{
  "source": "a protein production outcome set (Wang et al. 2014)",
  "assay": "label from the status in PepcDB records",
  "data": [
    {"sequence": "MDPNQPVKFTEFMPDSGGIRTKFIVKGSNFGEDKSQVKVYFKDEVGNEREALVLGVKPDVIYAQVPKQAGGESHVRVEIAGKEAELSNAEKTFKYIVTSSVSTVVGKAKEGGNKDGTLGETTFNTPRYVAVDNDDNVFIFDSDGRTRLSSIEQNKTITLLDGMVIDQPLFIDKEKKQLFGPCDNANFGCFLFDANVSWVADKMGQLLANGGWMHSVVLDPVDSTFVIYRQNTGQLWTQPFDKNRRTLNPNKAKRIGTLYNTGSNGLCAYNPVDKYVYCVLHSKSAVYRFKLTRDADGWPALDGDIDEYIPGAGAGFRDGDVQEAQFKEPRGIAIDKEGNLYIADVGNNRIRKVDTKLNVVTTIAGSGAAGYKDGDPLEAQFNQPWGVYLDKNEFLYIADQNNHCIRKLAIELEHHHHHH", "values": [
      {"measurement": "protein production", "value": "failed"}
    ]},
    {"sequence": "MAEKKWFDKVLSKWQYEPIQVFMRHLQSAEMDLSAIAVAYYLILTAFPLIVIAANIFPYLNIDIADLLRLMKQNLPKDIFRPASAIVENIFSKPSGSVLGVATLTGLWTMSRSLTSLQKAINKAYGASQHRDFFIGHLVGLLTSLIILFLLAFALIFSIFSKAAIQVLDKHYHLSDNITTIFLLLIQPITVLIIFVGLMLLYFLLPNVKIKKIRYILPGTLFTSFVMTFLSNLVGNYVVYNVERMVDIKMFGSVMIFIIMLWFIFLARILILGAIFNATYQEMSLGKLEGRSGDMIAILKKTLGNDSDLSPSQSIEDSHTD", "values": [
      {"measurement": "protein production", "value": "failed"}
    ]},
    {"sequence": "MSEVVKKFMYLNRKAPYGTIYAWEALEVVLIGAAFDQDVCVLFLDDGVYQLTRGQDTKGIGMKNFSPTYRTLGDYEVRRIYVDRDSLEARGLTQDDLVEIAFEDMETEEEFDNIVEVIDSARVSELMNESDAVFSF", "values": [
      {"measurement": "protein production", "value": "not failed"}
    ]},
    {"sequence": "MNRLRTSLTALAAAITLSGLANAATRYEELANQPFEKGFPTETAARNLIDELVFQRAVQSYLWALPAINIWSMKEASEKEFGAGYNILPTWKKRINAKTLVTTPNSDLVYAMSYLDLQKYGPLVVEAPPGVQGMFDDFFQRPIVGPTIDGKTWRGDVGLAGPDKGKGGTYVLLPPDYKGPEPTEGYVYRSRTNNVFLFWRTFFKDPKDLSVPVAEVERTKIYPLGKKDEALPMQFPDATGAPINMLFPEDGRYFDMLSRFIDAEAVDPADMDMRGFLHTLGIEKGKPFAPDAQRRKLLDEAARTAFKMSKVVTSHLLLKEPGGLYYKDRQYVNTFAGENTEFQSSGSFTNLEQRVAFFTSAYSDSPGMVMNMVGAGAKYPATTRDADGKFLDGAQTYKLNLPANVPAALFWSVTAYDNLTASGLDNGQPFPSLNQMDKPVQNSDGSTDIYFGPKSPGEGKNWIKTVPDKGFLVIVRLYGPKQAFFDQSWKPSDLLKQ", "values": [
      {"measurement": "protein production", "value": "failed"}
    ]},
    {"sequence": "MVKDKNDVGPKTVAILGAGGKMGARITRKIHDSAHHLAAIEIAPEGRDRLQGMGIPLTDGDGWIDEADVVVLALPDNIIEKVAEDIVPRVRPGTIVLILDAAAPYAGVMPERADITYFIGHPCHPPLFNDETDPAARTDYHGGIAKQAIVCALMQGPEEHYAIGADICETMWSPVTRTHRVTTEQLAILEPGLSEMVAMPFVETMVHAVDECADRYGIDRQAALDFMIGHLNVEIAMWFGYSPKVPSDAALRLMEFAKDIVVKEDWREALNPAKVKQAAELIAGK", "values": [
      {"measurement": "protein production", "value": "not failed"}
    ]},
    {"sequence": "LDKMSKKTRQAIRTSKNKGVDIQFGSHELLEDFAELMKKTEDRKGINLRGIDYYQKLLDTYPNNSYITMASLDVAKRLEKIEKECQIAQSERIKSLELNREKKVKQHQGTIDRLNKEIDFLKEAQKAYDRDIIPLAATLTLEFGNTSENIYAGMDDYFKSYSAPIYTWFETAQRAFERGNIWQNMGGIENDLSGGLYHFKSKFEPII", "values": [
      {"measurement": "protein production", "value": "failed"}
    ]},
    {"sequence": "MYAGRRDPSHVGIVMVGSPATATLILNDKVVVDLEGETLRLENGDAIALRPQAFAVLRHLVQNANRLVSKAELLEAVWGGAAVTDDSLVQCIHEIRRALGDERYAVLATVSRRGYRLSLERSDESALGGPSIAVLPFATMSGGEPNDYFADGLVEDIITNLSKIPGLFVIARNSSFGFRGEKADLRTIAAELRVRYLLQGSLRQSGGRLRIYAQLVDGASATHVWADRFEGAATDVFDLQDRLTEQIVGSIEPSVRRAEIERAHRKRPESLDAYDLYLRALPHAHANTPAQTDKALQLLARSIELQPDYVAAHGYAAWCYEQRYLRNGLDPADKAAALSHADIALGINSDDPQAMSIGAFVRANLTRDYDAAVEVLDRALAWNNNSTLAFGFSALVSAHSERHQRAVEHAHKALRLSPLDDPLSYHPYCALALTHLFAGAFADAARYAALAVRANPGFSIPYAYLAASHVGLGNVEAAHSAARRLIEVAPNFSVGGYVRTNLFQPYLMDALAAALRKAGLPE", "values": [
      {"measurement": "protein production", "value": "failed"}
    ]},
    {"sequence": "MESKEERALNNLIVENVNQENDEKDEKEQVANKGEPLALPLNVSEYCVPRGNRRRFRVRQPILQYRWDIMHRLGEPQARMREENMERIGEEVRQLMEKLREKQLSHSLRAVSTDPPHHDHHDEFCLMP", "values": [
      {"measurement": "protein production", "value": "not failed"}
    ]}
  ]
}
